The results in this text go back to US20230374157A1.

The target of test [1] is His-tagged human EGFR extracellular domain (expressed and purified in-house) (human) (UniProt P00533). The test is described as follows: BLI, antibody on AHC tips, monomeric EGFR ECD in solution, 1:1 fit. On the technique in general: Biolayer interferometry detects binding as a change in optical thickness at a sensor tip.
In test [2] the target is His-tagged human HER3 extracellular domain (Acro ER3-H5223) (human) (UniProt P21860). The test is described as follows: BLI, antibody on AHC tips, monomeric HER3 ECD in solution, 1:1 fit.

B1: SI-1C4 (duligotuzumab), 2-in-1 bispecific antibody against EGFR and HER3 (bispecific antibody, from a related filing, V domains shown)
VH: EVQLVESGGGLVQPGGSLRLSCAASGFTLSGDWIHWVRQAPGKGLEWVGEISAAGGYTDYADSVKGRFTISADTSKNTAYLQMNSLRAEDTAVYYCARESRVSFEAAMDYWGQGTLVTVSS
VL: DIQMTQSPSSLSASVGDRVTITCRASQNIATDVAWYQQKPGKAPKLLIYSASFLYSGVPSRFSGSGSGTDFTLTISSLQPEDFATYYCQQSEPEPYTFGQGTKVEIKR
As to B1, in test [1], the Kd (usually a measure of binding affinity in units of concentration) amounted to 14.6 nM; the koff (in general, a measure of how fast the partners let go of each other) was found to be 0.00438 s⁻¹; the kon (as a rule, a measure of how fast the partners come together) amounted to 300000 M⁻¹ s⁻¹. Moreover, in test [2], the Kd is 4.29 nM, the dissociation rate constant (koff) amounted to 0.000877 s⁻¹ and the kon is 205000 M⁻¹ s⁻¹.
